Measured values taken from article PMC3671127.

What was measured:
[1] = target: HIV-1 integrase, wild type, fluorescently labelled (IN-mTFP1 and IN-mVenus) in virions (HIV-1) (UniProt P12497); assay: FRET or BRET; single virus FRET by acceptor photobleaching (TIRF microscopy) on fixed virions with IN-mTFP1 donor and IN-mVenus acceptor; FRET ratio = FD/FDA, unity means no FRET; virions produced in the presence of DMSO
[2] = target: HIV-1 integrase, wild type, fluorescently labelled (IN-mTFP1 and IN-mVenus) in virions (HIV-1) (UniProt P12497); assay: FRET or BRET; single virus FRET by acceptor photobleaching (TIRF microscopy) on fixed virions with IN-mTFP1 donor and IN-mVenus acceptor; FRET ratio = FD/FDA; virions produced in the presence of CX05045 (5-fold EC50)
[3] = target: HIV-1 integrase, wild type, fluorescently labelled (IN-mTFP1 and IN-mVenus) in virions (HIV-1) (UniProt P12497); assay: FRET or BRET; single virus FRET by acceptor photobleaching (TIRF microscopy) on fixed virions with IN-mTFP1 donor and IN-mVenus acceptor; FRET ratio = FD/FDA; virions produced in the presence of raltegravir (5-fold EC50)
[4] = target: HIV-1 integrase A128T (LEDGIN-resistant), fluorescently labelled (IN_(A128T)-mTFP1 and IN_(A128T)-mVenus) in virions (HIV-1); assay: FRET or BRET; single virus FRET by acceptor photobleaching (TIRF microscopy) on fixed virions with IN-mTFP1 donor and IN-mVenus acceptor; FRET ratio = FD/FDA, unity means no FRET; virions produced in the presence of DMSO
[5] = target: HIV-1 integrase A128T (LEDGIN-resistant), fluorescently labelled (IN_(A128T)-mTFP1 and IN_(A128T)-mVenus) in virions (HIV-1); assay: FRET or BRET; single virus FRET by acceptor photobleaching (TIRF microscopy) on fixed virions with IN-mTFP1 donor and IN-mVenus acceptor; FRET ratio = FD/FDA; virions produced in the presence of CX05045 (5-fold EC50)
[6] = target: HIV-1 Pol polyprotein with a catalytically dead protease (sPol-PR_(D25N)) (HIV-1 (IIIB)); assay: AlphaScreen or HTRF; 33 nM GST-sPol-PR_(D25N) and 33 nM His-MBP-sPol-PR_(D25N) kept constant, CX05045 (raltegravir, DMSO as controls) titrated 1:10 from 100 uM; 25 mM Tris/HCl pH 7.5, 150 mM NaCl, 1 mM dithiothreitol, 1 mM MgCl2, 0.1% BSA, 0.1% Tween 20; overnight at 4°C, then glutathione donor and Ni-chelate acceptor beads 2 h at 23°C

Which results are given for “HIV-1 integrase, wild type, fluorescently labelled (IN-mTFP1 and IN-mVenus) in virions (from UniProt P12497 1148-1435) (enzyme)”?
mean FRET ratio (DMSO) [1]: 1.25; mean FRET ratio (CX05045) [2]: 1.43; mean FRET ratio (raltegravir) [3]: 1.22

How did the mean FRET ratio (DMSO) [4] turn out when “HIV-1 integrase A128T (LEDGIN-resistant), fluorescently labelled (IN_(A128T)-mTFP1 and IN_(A128T)-mVenus) in virions (enzyme)” was run?
The mean FRET ratio (DMSO) was 1.26.

What about the mean FRET ratio (CX05045) [5] of the same substance?
Its mean FRET ratio (CX05045) is 1.23.

How did the EC50 of CX05045 for the enhancement of Pol-Pol multimerization [6] turn out when “HIV-1 Pol polyprotein with a catalytically dead protease (sPol-PR_(D25N)) (natural protein)” was run?
Its EC50 of CX05045 for the enhancement of Pol-Pol multimerization is 8.7 nM.
